# Source: IntAct's records for PubMed 23322602
# Target: adt2_human SLC25A5 (UniProt P05141)
# Sequence (P05141 whole entry): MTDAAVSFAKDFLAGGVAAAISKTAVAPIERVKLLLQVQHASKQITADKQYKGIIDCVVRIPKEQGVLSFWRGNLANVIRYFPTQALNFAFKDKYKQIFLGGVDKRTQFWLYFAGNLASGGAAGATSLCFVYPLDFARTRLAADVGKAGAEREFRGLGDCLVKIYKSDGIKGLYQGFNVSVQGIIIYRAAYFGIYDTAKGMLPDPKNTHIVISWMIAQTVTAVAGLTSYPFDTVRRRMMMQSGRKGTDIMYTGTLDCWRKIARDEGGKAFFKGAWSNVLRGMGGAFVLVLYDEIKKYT
# Sequence of Cytoplasmic protein NCK2 (Homo sapiens), O43639 R311K (O43639 whole entry R311K): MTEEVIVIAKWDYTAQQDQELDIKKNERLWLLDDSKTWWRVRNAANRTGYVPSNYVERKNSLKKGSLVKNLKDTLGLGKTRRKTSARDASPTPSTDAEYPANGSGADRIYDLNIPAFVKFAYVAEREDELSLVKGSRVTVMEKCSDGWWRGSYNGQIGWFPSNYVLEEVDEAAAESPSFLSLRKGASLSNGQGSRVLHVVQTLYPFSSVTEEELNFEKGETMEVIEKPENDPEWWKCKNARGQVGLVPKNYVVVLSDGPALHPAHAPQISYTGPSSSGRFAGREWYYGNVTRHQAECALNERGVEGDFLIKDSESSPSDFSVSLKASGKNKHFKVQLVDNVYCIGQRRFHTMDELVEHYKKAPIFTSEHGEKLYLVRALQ
substance,measurement,value
"Cytoplasmic protein NCK2 (Homo sapiens), O43639 R311K",effect of a mutation on the interaction,disrupting interaction
